Experimental data reported in the DeepSol protein solubility set.

test: soluble on expression in E. coli; label from the status in PepcDB or PDB records

Sequence | soluble on expression in E. coli
MHGSQKDTTFTKIFVGGLPYHTTDASLRKYFEGFGDIEEAVVITDRQTGKSRGYGFVTMADRAAAERACKDPNPIIDGRKANVNLAYLGAKPRSLQTGFAIGV | soluble
MHHHHHHGHNSNLQDILAANAKWASQMNNIQPTLFPDHNAKGQSPHTLFIGCSDSRYNENCLGVLPGEVFTWKNVANICHSEDLTLKATLEFAIICLKVNKVIICGHTDCGGIKTCLTNQREALPKVNCSHLYKYLDDIDTMYHEESQNLIHLKTQREKSHYLSHCNVKRQFNRIIENPTVQTAVQNGELQVYGLLYNVEDGLLQTVSTYTKVTPK | soluble
MHHHHHHSSGRENLYFQGMWDQRLVRLALLQHLRAFYGIKVKGVRGQCDRRRHETAATEIGGKIFGVPFNALPHSAVPEYGHIPSFLVDACTSLEDHIHTEGLFRKSGSVIRLKALKNKVDHGEGCLSSAPPCDIAGLLKQFFRELPEPILPADLHEALLKAQQLGTEEKNKATLLLSCLLADHTVHVLRYFFNFLRNVSLRSSENKMDSSNLAVIFAPNLLQTSEGHEKMSSNTEKKLRLQAAVVQTLIDYASDIGRVPDFILEKIPAML | soluble
MHHHHHHSSGVDLGTENLYFQSMDLRVQELIKLICNVQAMEEMMMEMKYNTKKAPLGKLTVAQIKAGYQSLKKIEDCIRAGQHGRALMEACNEFYTRIPHDFGLRTPPLIRTQKELSEKIQLLEALGDIEIAIKLVKTELQSPEHPLDQHYRNLHCALRPLDHESYEFKVISQYLQSTHAPTHSDYTMTLLDLFEVEKDGEKEAFREDLHNRMLLWHGSRMSNWVGILSHGLRIAHPEAPITGYMFGKGIYFADMSSKSANYCFASRLKNTGLLLLSEVALGQCNELLEANPKAEGLLQGKHSTKGLGKMAPSSAHFVTLNGSTVPLGPASDTGILNPDGYTLNYNEYIVYNPNQVRMRYLLKVQFNF | soluble
MHHHHHHSSGVDLGTENLYFQSMKLIRVENFEAYFKKQQADSNCGFAEEYEDLKLVGISQPKYAAELAENRGKNRYNNVLPYDISRVKLSVQTHSTDDYINANYMPGYHSKKDFIATQGPLPNTLKDFWRMVWEKNVYAIIMLTKCVEQGRTKCEEYWPSKQAQDYGDITVAMTSEIVLPEWTIRDFTVKNIQTSESHPLRQFHFTSAPDHGVPDTTDLLINFRYLVRDYMKQSPPESPILVHCSAGVGRTGTFIAIDRLIYQIENENTVDVYGIVYDLRMHRPLMVQTEDQYVFLNQCVLDIVRSQKDSKVDLIY | soluble
MHHHHHHSSGVDLGTENLYFQSMQGTNPYLTFHCVNQGTILLDLAPEDKEYQSVEEEMQSTIREHRDGGNAGGIFNRYNVIRIQKVVNKKLRERFCHRQKEVSEENHNHHNERMLFHGSPFINAIIHKGFDERHAYIGGMFGAGIYFAENSSKSNQYVYGIGGGTGCPTHKDRSCYICHRQMLFCRVTLGKSFLQFSTIKMAHAPPGHHSVIGRPSVNGLAYAEYVIYRGEQAYPEYLITYQIMKPEAPSQTATAAEQ | soluble
MHHHHMITLENPDIKYPLRLIDKEILSHDTRRFRFALPSPQHILGLPIGQHIYLSTRIDGNLVIRPYTPVSSDDDKGFVDLVVKVYFKETHPKFPAGGKMPQYLENMNIGDTIEFRGPNGLLVYQGKGKFAIRADKKSNPVVRTVKSVGMIAGGTGITPMLQVIRAVLKDPNDHTVCYLLFANQSEKDILLRPELEELRNEHSSRFKLWYTVDKAPDAWDYSQGFVNEEMIRDHLPPPGEETLILMCGPPPMIQFACLPNLERVGHPKERCFTF | soluble
MHHPPVEELELIDSPAALEWAREWSQATQERWSNDALQRSIREALDTDARIPYVTRRGEYLYNFWRDRDHPRGVWRRTTLESFTSDSPQWQVLIDVDRLAASEEESWVWKGAHVRPHHFDRALIRLSRGGADAVEIREFDLDSGSFVEDHAFAVPEAKTQVCWVDRDTVLVGTDMGAGSLTESGYPARVHVWRRGTNLAEAEEFFCGLSSDLAVSAWAETVPGFERLFVRRALDFYRSRTFIQRDGHLQIIEVPEDCTVVVHREWMYVLPREEYAGIASGGVGAILFEDF | not soluble
MHIGQFTRQYPAETAFKVQSNPWKNSPEPFLPMSTQQPKSWADVGKVAGPPRNYHHPYEVKPFEAIDEKNDVFSTMGHWNSEQKQSRQQHQQYQQNQYQARQHQYYQNPPPFYQPEQPVHYQSAQQDVFDNIGEWDNSTPIPSQISPLQLDLTLTTPLPTFQPYPSTRSYSLESPTTSVTSNEEKNSWKTIELILNQKSSRSPSITERLSPVDFGPWTSNL | not soluble
MHIKSAIIVVSDRISTGTRENKALPLLQRLMSDELQDYSYELISEVVVPEGYDTVVEAIATALKQGARFIITAGGTGIRAKNQTPEATASFIHTRCEGLEQQILIHGSTHTHLAGLSRGIVGVTGRDDHAALIVNAPSSSGGITDTWAVISPVIPNIFEGLDAS | soluble
MHKNGNNGPVIDTKWHYLGPDSEKYGPYMSKDMLFWLQAGYFNDGLQLKTENEPNYHTLGEWSQLLGTHPFSMPVHSLDATIAQMNSMRPHGAMMMVPPGLQNQFQPPMPMRFPPFLPMPLLHQMNQNGPPMGAQMHSQPPSEPIDAGSLSHTPDSENETRLNEQTLQQPPSWLIALGLAGHGRKPHHHQQILAHQHIPQMQHANVATDQVVMKSVECQTEPVEISKEQASRVLSELLGQMVIIN | not soluble
MHLAKERSSVSGTLRVGDRSPRIAEVRTALTRLGLLEGTTKNLEQTKSDTFTDSETLFDEDLALALQGFQQARGIIASGEINEITLKLLREASYSLGARVLSFEPNNIFVGDDVVQLQHQLQELGFYTDRVDGRFGELTYTSLVNYQLNYGLNPDGICGPETIRAFGRLGRRITGGSPHALRERERVRDAGPMLAGKRVVIDPGFGGADKGQVVRGPYGDITEEEIIWDLAGRIEGRMIAAGMETIVSRPRQDSPSLKGRADIANAFGADVMISLQCDKYPNDKANGVASFYFGSEMGSSSLTGEMLSGFIQREISARTDLVNCGNHGRTWDLLRITEMPTVEVVLGYLTNPHDVAILTDPEQRDAIAEAIVVAVKRLYLLDDDDQPTGTYRFSEMLEQGLL | not soluble
MHPKDQSVTLLSIIRDYLKLSDKEREAARILANGLVKVDGKTVREKKFAVGFMDVIEINGESYRVVYNDQGALVLMKETKERASMKLLKVRSKVIAPGNRIQLGTHDGRTFITDDKSKKVGDVWAVSVPDMKISEIIKMQPGNKAYITAGSHVNQTGTISKIEAKEGSSANLVHFQEGFSTIKDHVFMIGSSKFSFVLSPEEVIPLEHHHHHH | soluble
MHPRFQTAFAQLADNLQSALAPILADHHFPAMLTAEQVSTLKNTAGLDEDALAFALLPLAAACARTDLSHFNVGAIARGVSGNWYFGANMEFLGATMQQTVHAEQSAISHAWLRGEKGLAAVTVNYTPCGHCRQFMNELNSGLDLRIHLPGRAPHTLRDYLPDAFGPKDLEIKTLLMDEQDHGFTLTGDTLTQAAITAANKSHMPYSHSPSGVALECKDGRIFTGSYAENAAFNPTLPPLQGALNLLSLNGYDYADIQRAILAEKGDAALIQWDATAATLKALGCHNIDRVLLG | not soluble
MHRALNQDDDHNQDGQDLLEAVLARDNLARAWRRVKSNRGAPGIDGVTTAEWPEHARAHWPATREQIEAGRYRPQPVRRVDIPKPDGGQRQLGIPTVTDRVIQQAIAQVLIPIFDPGFSASSFGFRPGRNAHQAIRQVQAHVKAGYRWAVDLDLARFFDNVNHDLLMSLLSRSIADKRLLALIGRYLRAGVLVGEHPQPSEVGTPQGGPLSPLLANVLLHQFDLELERRGHRFARYADDVIILVKSRRAAERVMQSLTYFLQSTLKLTVNLAKSQVAPMSECSFLGFTLVGKKIRWTEKSLANFKHRVRQLTGRSWGVSMEYRLEKLGQYLRGWFGYYGISQYYRPIPELDEWIRRRVRMCYWKQWRWARTKIRHLLDLGIPLKAAIQHGVSSLSYWRMARTPVTQQAMSNDWLRAQGLLSIKDLWCKAQSYGPDKGLEHHHHHH | not soluble
MHRIMLSGYLKALVDAGILKERRIKPVTLYSVLRRQDMNIYELTGNAIRSSGSKMDGDTALRLLYAILRRPVFLTEVERCGTKKPLNFETIIWERRKDLIRKLAESGIIIPETDMLVVPKDATADNTIDLISTLLGQVIDLKKYTIPEAEKKQKTLDF | not soluble
MHSFLQFLRDDNPGSLEDHLNFVPSDDLKYELGMLLSSRPLYLETDELPFVSSSVLNYGIKSSVFVVSAGEHSDSVNDEISSRILMMLQRYESRLEEPVVEYLSSDDNYSFFSVTALFFMDMVRLCIKWDKNSGEFSLDE | not soluble
MHTGCCTTKFDTEVLIIGNGPAGIALSSFLSGMHPFYDATHPHENVTVHEKLLANHDFSLIDQDLSWSSNLTELSQSGRPLSVLYDMLVRPGADMGSDAPGCIQWELNRRREIPHMVIGETKIGGSWNEYDAEMLTVSFSDWMDMPGFTMEQWLGGRPLVKRLPSVAIATYLKKYVERLRLRKKFHQYFVVNSIKKIGDVWVTSGKRSTDGRSFVIRSKQVVVACGKTSPRKLQLPNEEHCSSNIVYDVRALKERLDATKKTVIDEDENYDTPSTSTCSPVIVVGDGVSSVDCVRHCLERDIPVVHVIRRTLRELRNVMLSRLSPIHYSEYTDIYRMMIGRSVHKNYQRVLDASITSVSKIHVEITTGSNREIIEMPYSTVAVCIGRESHFSTVFENAHTFLDYQSEQDETLFAVGAYAGDHFVRFLVGGCLRVAQHITGAANNNNVTAKLLPIC | not soluble
MHVTLVEINVHEDKVDEFIEVFRQNHLGSVQEEGNLRFDVLQDPEVNSRFYIYEAYKDEDTVAFHKTTPHYKTCVAKLESLMTGPRKKRLFNGLMP | not soluble
MIAASDLKAGMTFEQDGKLIKVMEASHHKPGKGNTVMRMKLKDVRTGSTTDTTMRPDEKVKKAHIDTKPVQYLYSQDDMAIFMDLETYEQYEVPTALIEEELKYLLENMEVKIQFYGEEVIGLTLPTTVILRVAETQPSIKGATVTGSGKPATMETGLVVNVPDFVEADELLEINTAEGTYLKRAK | not soluble
MIARRNPIEQLPAIAQDPDKFGVLLSAAEFRTHLVESIRQARKRIYLVALYLENDDAGREILTELYAAKQRNPGLEIHICVDWHRAQRGLIGAAESEGNAAMYRDFAQQHEHCIPVYGIPVRGREVFGVLHLKGFIIDDQVIYSGASLNNVYLQFHGRYRFDRYHTLENAELADSMVHFIQQEMLAHPAVNNLACGSKPTTKEIKSDIRQFRASLAQANYQFAKQKVNEGQVAVTPLVGLGRRRNRLNQSIIQLLASAKDEVFICTPYFNFPPSIAKEVKKALRRGVKVHIVIGDKTANDFYIAPEEPFKTIGGLPYLYELNLRRFAKANEAHIASRKLSIHLWKHENHSFHLKGIWVDKRYMLITGNNLNPRAWKLDLENAILIRDDYHHLTTKFEAEIDNILQHTQLICTYKQIEKPEHYPEKVQRLVRRIMRLKADRVLKQILLEHHHHHH | soluble
MICTPKVGLNNQLTKVQFFMTKYNFLFKQQVIEFYLQNDKNSSLTRRHFQLAETTLERWINQFNHSGINGLALLGKKRNYSPEFKLNVIQAVKNGKFSAEAACLHFGIANSGVVSQWLQAFEKQGINGLIPKPKGRPTMKLQYPKMPPKPKTREEELELENLRLRAENAILKKLQELNQQKMQKKPLSLEHHHHHH | not soluble
MIDAVATDSSSTPSNEKPRRARRTRMTGAERRQQLLEIGRTLFAAKGFEGTSVEEIAAKAGVSKPVVYEHFGGKEGLYAVVVDREMRRLLDMVTGSLTAGHPRELCEQAAFALLDYIEEYTDGFRILVRDSPIPQSTGTFASLISDIATQVEDILGREFKNRGFDAKLAPLYAQALVGMVALTGQWWLDVRRPKKAEVAAHLVNLAWHGLDGLEPKPRLIGHRKS | not soluble
